{"source": "patent US20090044296A1", "about": "(CORNELL RESEARCH FOUNDATION, published 2009)", "molecules": {"B1": {"name": "HIPM (HrpN-interacting protein from Malus), original yeast two-hybrid clone with the 53 C-terminal amino acids (other)", "chain": "GDRWSMRILWACAIGSAVSLYMVAVDRQLKNRERALAEELKAMEAESGSGEIV", "notes": "Residues 8-60 are worked out from that; also called pB42AD-HIPM; pAD-HIPM"}, "B2": {"name": "AtHIPM, 52 amino acid fragment orthologous to the original HIPM prey clone (other)", "chain": "NDKWSMRILWGCAIGSAIGLYMVAVERQTQNRARAMAESLRAAESQGDGDNV"}, "B3": {"name": "HrpN (harpin) of Erwinia amylovora, full-length, yeast two-hybrid construct (other)", "chain": "MSLNTSGLGASTMQISIGGAGGNNGLLGTSRQNAGLGGNSALGLGGGNQNDTVNQLAGLLTGMMMMMSMMGGGGLMGGGLGGGLGNGLGGSGGLGEGLSNALNDMLGGSLNTLGSKGGNNTTSTTNSPLDQALGINSTSQNDDSTSGTDSTSDSSDPMQQLLKMFSEIMQSLFGDGQDGTQGSSSGGKQPTEGEQNAYKKGVTDALSGLMGNGLSQLLGNGGLGGGQGGNAGTGLDGSSLGGKGLQNLSGPVDYQQLGNAVGTGIGMKAGIQALNDIGTHSDSSTRSFVNKGDRAMAKEIGQFMDQYPEVFGKPQYQKGPGQEVKTDDKSWAKALSKPDDDGMTPASMEQFNKAKGMIKSAMAGDTGNGNLQARGAGGSSLGIDAMMAGDAINNMALGKLGAA", "notes": "also called pGilda-hrpN; full-length HrpN protein"}}, "key": {"[1]": {"target": "AtHIPM, endogenous protein in Arabidopsis thaliana ecotype Columbia plants (Arabidopsis thaliana)", "test": "cell-based or functional assay"}, "[2]": {"target": "the molecule itself", "test": "yeast two-hybrid (LexA system), self-interaction"}, "LexA-lamin": {"target": "T1, LexA-lamin (UniProt P02545 66-230)", "T1 construct": "not shown: LexA part of the fusion", "T1 sequence": "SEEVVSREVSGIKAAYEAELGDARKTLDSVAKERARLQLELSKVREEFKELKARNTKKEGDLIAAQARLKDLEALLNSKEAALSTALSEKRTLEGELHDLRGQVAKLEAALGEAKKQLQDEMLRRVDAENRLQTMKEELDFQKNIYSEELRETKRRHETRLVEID", "test": "yeast two-hybrid (LexA system), growth without leucine"}, "[3]": {"target": "T2, HrpN-4, truncated derivative of HrpN spanning residues 1-198 (Erwinia amylovora, UniProt Q01099 1-198)", "T2 construct": "Cloned in pGilda (LexA fusion, bait)", "T2 sequence (looked up)": "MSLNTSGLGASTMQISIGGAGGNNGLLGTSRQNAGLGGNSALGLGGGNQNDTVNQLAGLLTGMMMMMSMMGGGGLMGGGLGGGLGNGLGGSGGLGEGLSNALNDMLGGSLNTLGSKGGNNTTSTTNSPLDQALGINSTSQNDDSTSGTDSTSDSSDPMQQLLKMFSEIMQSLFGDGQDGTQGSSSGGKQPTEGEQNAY", "test": "yeast two-hybrid, HrpN deletions in pGilda against pB42AD-HIPM", "source_text": "Transformants were selected on minimal synthetic dropout (“SD”) medium containing glucose but lacking histidine and tryptophan (“SD/glu-HT”). To identify yeast transformants with positive interaction, the transformants were screened on SD medium with galactose but without histidine, tryptophan, and leucine (“SD/gal-HTL”). Yeast colonies with positive interaction grow in this medium. A yeast strain transformed with p53 as bait and large antigen T as prey was used as a positive control. […] Yeast cell cultures were grown overnight in the SD/glu-HT medium. The cells then were washed once with water and resuspended in water. 10 μl of yeast cell suspension (OD₆₀₀=0.2) was dropped on SD/gal-HTL plates. As a control, the same yeast suspension was dropped on SD/gal-HT plates with leucine."}, "[4]": {"target": "B3", "test": "yeast two-hybrid (LexA system), HrpN bait, apple cDNA prey clone"}, "[5]": {"target": "B3", "test": "yeast two-hybrid (LexA system), growth with or without leucine"}}, "data": [{"molecule": "HrpN as applied to plants (Messenger, Eden Bioscience; 15 ug/ml of HrpN) (from UniProt Q01099 1-403)", "values": [{"measurement": "decrease in root growth of the AtHIPM T-DNA mutant line (few AtHIPM transcripts) after treatment with 15 ug/ml of HrpN", "setting": "[1]", "result": 6, "unit": "%"}, {"measurement": "root growth of the wild-type 10 days after treatment with 15 ug/ml of HrpN", "setting": "[1]", "result": 9, "unit": "%"}, {"measurement": "top growth of the wild-type plants one week after spraying with 15 ug/ml of HrpN", "setting": "[1]", "result": 10, "unit": "%"}]}, {"molecule": "B1", "values": [{"measurement": "binding result", "setting": "[2]", "result": "no binding"}, {"measurement": "binding result", "setting": "LexA-lamin", "result": "no binding"}, {"measurement": "binding result", "setting": "[3]", "result": "binds"}, {"measurement": "binding result", "setting": "[4]", "result": "binds"}]}, {"molecule": "B2", "values": [{"measurement": "binding result", "setting": "[2]", "result": "no binding"}, {"measurement": "binding result", "setting": "[5]", "result": "binds"}]}, {"molecule": "B3", "values": [{"measurement": "binding result", "setting": "[2]", "result": "binds"}]}]}
